In IntAct's records for PubMed 11100732:

B1: Autophagy-related protein 3 (Saccharomyces cerevisiae), P40344 (parent)
chain: MIRSTLSSWREYLTPITHKSTFLTTGQITPEEFVQAGDYLCHMFPTWKWNEESSDISYRDFLPKNKQFLIIRKVPCDKRAEQCVEVEGPDVIMKGFAEDGDEDDVLEYIGSETEHVQSTPAGGTKDSSIDDIDELIQDMEIKEEDENDDTEEFNAKGGLAKDMAQERYYDLYIAYSTSYRVPKMYIVGFNSNGSPLSPEQMFEDISADYRTKTATIEKLPFYKNSVLSVSIHPCKHANVMKILLDKVRVVRQRRRKELQEEQELDGVGDWEDLQDDIDDSLRVDQYLIVFLKFITSVTPSIQHDYTMEGW
partner: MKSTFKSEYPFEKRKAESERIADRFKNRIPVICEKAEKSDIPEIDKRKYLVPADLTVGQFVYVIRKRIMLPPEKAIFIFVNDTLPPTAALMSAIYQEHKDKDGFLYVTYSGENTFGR

Variants of: B1
Details: with atg8_yeast ATG8, P38182

| Variant | effect of a mutation on the interaction |
| --- | --- |
| MIRSTLSSWREYLTPITHKSTFLTTGQITPEEFVQAGDYLCHMFPTWKWNEESSDISYRDFLPKNKQFLIIRKVPCDKRAEQCVEVEGPDVIMKGFAEDGDEDDVLEYIGSETEHVQSTPAGGTKDSSIDDIDELIQDMEIKEEDENDDTEEFNAKGGLAKDMAQERYYDLYIAYSTSYRVPKMYIVGFNSNGSPLSPEQMFEDISADYRTKTATIEKLPFYKNSVLSVSIHPSKHANVMKILLDKVRVVRQRRRKELQEEQELDGVGDWEDLQDDIDDSLRVDQYLIVFLKFITSVTPSIQHDYTMEGW [C234S] | disrupting interaction |
| MIRSTLSSWREYLTPITHKSTFLTTGQITPEEFVQAGDYLCHMFPTWKWNEESSDISYRDFLPKNKQFLIIRKVPCDKRAEQCVEVEGPDVIMKGFAEDGDEDDVLEYIGSETEHVQSTPAGGTKDSSIDDIDELIQDMEIKEEDENDDTEEFNAKGGLAKDMAQERYYDLYIAYSTSYRVPKMYIVGFNSNGSPLSPEQMFEDISADYRTKTATIEKLPFYKNSVLSVSIHPAKHANVMKILLDKVRVVRQRRRKELQEEQELDGVGDWEDLQDDIDDSLRVDQYLIVFLKFITSVTPSIQHDYTMEGW [C234A] | disrupting interaction |
